Laboratory results published in article PMC6364133, “Selectivity of Dietary Phenolics for Inhibition of Human Monoamine Oxidases A and B” (BioMed Research International, 2019).
“And” between values parts separate entries of the source, which are not always exact repeats. Equal values may be shown once.

What was measured:
Assay type in all cases: biochemical, human
[1] = substrate: NCCC(=O)c1ccccc1N; experiment: Kynuramine oxidative deamination kinetics (saturation, optimization) with MAO-B; details: other: kynuramine 2-500 μM, 15 min, mean ± SEM; pH 7.4; 37.0 °C
Method: (§1) The optimized incubation time and human recombinant MAO concentration were selected in the linear range from the time-dependent and MAO concentration-dependent studies (Supplemental Data). Briefly, samples were prepared in potassium phosphate buffer (100 mM, pH 7.4) with a final concentration of MAO in the reaction solution of 0.01 mg/mL, incubated at 37°C for 15 min. Saturation of kynuramine metabolism with MAO-A/B was carried out at concentrations of 2, 5, 10, 25, 50, 100, 250, 500 μM. The enzymatic reactions (200μL) were stopped by 2 N NaOH (75 μL) followed with 70% perchloric acid (25 μL). The samples were vortexed and centrifuged for 5 min at 10,000×g. The supernatant was analyzed by HPLC as described above.
(§2) GraphPad Prism 5 was applied to fit a Michaelis-Menten model to the data to obtain the Km values in the saturation experiments. In the screening experiments, significant differences between control and treated group were determined by a one-way ANOVA followed by Dunnett's posttest (p < 0.05). […] The maximum single doses are from published sources. The relevant GI concentration is the lesser of either solubility or the concentration after a single dose. […]
(§3) Kynuramine (10 µM) was incubated with MAO-A (0.01 mg/mL) in 200 µL potassium phosphate buffer (100 mM, pH 7.4) for 10, 20, 30, 40, and 60 min. The formation of 4-hydroxyquinoline was analyzed after the enzymatic reaction. […]

[2] = substrate: NCCC(=O)c1ccccc1N; experiment: Inhibition mechanism studies (competition, time dependence) with MAO-B; details: other: competition study control, kynuramine 2-450 μM
[3] = substrate: NCCC(=O)c1ccccc1N; experiment: Kynuramine oxidative deamination kinetics (saturation, optimization) with MAO-A; details: other: kynuramine 2-500 μM, 15 min, mean ± SEM; pH 7.4; 37.0 °C
Method: as §1, §2, §3

[4] = substrate: NCCC(=O)c1ccccc1N; experiment: Inhibition mechanism studies (competition, time dependence) with MAO-A; details: other: competition study control, kynuramine 2-450 μM

B1: human recombinant MAO-B (Homo sapiens) (protein)
chain: MSNKCDVVVVGGGISGMAAAKLLHDSGLNVVVLEARDRVGGRTYTLRNQKVKYVDLGGSYVGPTQNRILRLAKELGLETYKVNEVERLIHHVKGKSYPFRGPFPPVWNPITYLDHNNFWRTMDDMGREIPSDAPWKAPLAEEWDNMTMKELLDKLCWTESAKQLATLFVNLCVTAETHEVSALWFLWYVKQCGGTTRIISTTNGGQERKFVGGSGQVSERIMDLLGDRVKLERPVIYIDQTRENVLVETLNHEMYEAKYVISAIPPTLGMKIHFNPPLPMMRNQMITRVPLGSVIKCIVYYKEPFWRKKDYCGTMIIDGEEAPVAYTLDDTKPEGNYAAIMGFILAHKARKLARLTKEERLKKLCELYAKVLGSLEALEPVHYEEKNWCEEQYSGGCYTTYFPPGILTQYGRVLRQPVDRIYFAGTETATHWSGYMEGAVEAGERAAREILHAMGKIPEDEIWQSEPESVDVPAQPITTTFLERHLPSVPGLLRLIGLTTIFSATALGFLAHKRGLLVRV
notes: purchased BD Biosciences (San Jose, CA) or Corning Discovery Labware (Woburn, MA)
- Km [1]: 18.0 ± 2.3 µM
- Vmax [1]: 7.35 ± 0.69 nmol/min/mg

B2: MAO-B (Homo sapiens) (protein)
chain: MSNKCDVVVVGGGISGMAAAKLLHDSGLNVVVLEARDRVGGRTYTLRNQKVKYVDLGGSYVGPTQNRILRLAKELGLETYKVNEVERLIHHVKGKSYPFRGPFPPVWNPITYLDHNNFWRTMDDMGREIPSDAPWKAPLAEEWDNMTMKELLDKLCWTESAKQLATLFVNLCVTAETHEVSALWFLWYVKQCGGTTRIISTTNGGQERKFVGGSGQVSERIMDLLGDRVKLERPVIYIDQTRENVLVETLNHEMYEAKYVISAIPPTLGMKIHFNPPLPMMRNQMITRVPLGSVIKCIVYYKEPFWRKKDYCGTMIIDGEEAPVAYTLDDTKPEGNYAAIMGFILAHKARKLARLTKEERLKKLCELYAKVLGSLEALEPVHYEEKNWCEEQYSGGCYTTYFPPGILTQYGRVLRQPVDRIYFAGTETATHWSGYMEGAVEAGERAAREILHAMGKIPEDEIWQSEPESVDVPAQPITTTFLERHLPSVPGLLRLIGLTTIFSATALGFLAHKRGLLVRV
notes: as for B1
- Km [2]: 14.4 ± 1.2 µM
- Vmax [2]: 3.44 ± 0.07 nmol/min/mg protein

B3: human recombinant MAO-A (Homo sapiens) (protein)
chain: MENQEKASIAGHMFDVVVIGGGISGLSAAKLLTEYGVSVLVLEARDRVGGRTYTIRNEHVDYVDVGGAYVGPTQNRILRLSKELGIETYKVNVSERLVQYVKGKTYPFRGAFPPVWNPIAYLDYNNLWRTIDNMGKEIPTDAPWEAQHADKWDKMTMKELIDKICWTKTARRFAYLFVNINVTSEPHEVSALWFLWYVKQCGGTTRIFSVTNGGQERKFVGGSGQVSERIMDLLGDQVKLNHPVTHVDQSSDNIIIETLNHEHYECKYVINAIPPTLTAKIHFRPELPAERNQLIQRLPMGAVIKCMMYYKEAFWKKKDYCGCMIIEDEDAPISITLDDTKPDGSLPAIMGFILARKADRLAKLHKEIRKKKICELYAKVLGSQEALHPVHYEEKNWCEEQYSGGCYTAYFPPGIMTQYGRVIRQPVGRIFFAGTETATKWSGYMEGAVEAGERAAREVLNGLGKVTEKDIWVQEPESKDVPAVEITHTFWERNLPSVSGLLKIIGFSTSVTALGFVLYKYKLLPRS
notes: as for B1
- Km [3]: 23.1 ± 0.8 µM and 23 µM
- Vmax [3]: 10.2 ± 0.2 nmol/min/mg

B4: MAO-A (Homo sapiens) (protein)
chain: MENQEKASIAGHMFDVVVIGGGISGLSAAKLLTEYGVSVLVLEARDRVGGRTYTIRNEHVDYVDVGGAYVGPTQNRILRLSKELGIETYKVNVSERLVQYVKGKTYPFRGAFPPVWNPIAYLDYNNLWRTIDNMGKEIPTDAPWEAQHADKWDKMTMKELIDKICWTKTARRFAYLFVNINVTSEPHEVSALWFLWYVKQCGGTTRIFSVTNGGQERKFVGGSGQVSERIMDLLGDQVKLNHPVTHVDQSSDNIIIETLNHEHYECKYVINAIPPTLTAKIHFRPELPAERNQLIQRLPMGAVIKCMMYYKEAFWKKKDYCGCMIIEDEDAPISITLDDTKPDGSLPAIMGFILARKADRLAKLHKEIRKKKICELYAKVLGSQEALHPVHYEEKNWCEEQYSGGCYTAYFPPGIMTQYGRVIRQPVGRIFFAGTETATKWSGYMEGAVEAGERAAREVLNGLGKVTEKDIWVQEPESKDVPAVEITHTFWERNLPSVSGLLKIIGFSTSVTALGFVLYKYKLLPRS
notes: as for B1
- Km [4]: 8.46 ± 1.56 µM
- Vmax [4]: 17.4 ± 0.7 nmol/min/mg protein
